Test results taken from publication PMC4663267, “A Novel C-Terminal Domain of RecJ is Critical for Interaction with HerA in Deinococcus radiodurans”.

Assays:
DrHerA = molecular target: T1, DrHerA (Deinococcus radiodurans, UniProt Q9RW32 1-618); test: EMSA; HerA alone; EMSA: 100 nM DNA, 80 mM NaCl, 20 mM Tris-HCl pH 7.5, 1 mM DTT, 30 C, 10 min, 5% TBE native PAGE; conditions: protein: recombinant; tags: N-terminal His6; chain copies: 6; label: 5' FAM; single strand
T1 sequence: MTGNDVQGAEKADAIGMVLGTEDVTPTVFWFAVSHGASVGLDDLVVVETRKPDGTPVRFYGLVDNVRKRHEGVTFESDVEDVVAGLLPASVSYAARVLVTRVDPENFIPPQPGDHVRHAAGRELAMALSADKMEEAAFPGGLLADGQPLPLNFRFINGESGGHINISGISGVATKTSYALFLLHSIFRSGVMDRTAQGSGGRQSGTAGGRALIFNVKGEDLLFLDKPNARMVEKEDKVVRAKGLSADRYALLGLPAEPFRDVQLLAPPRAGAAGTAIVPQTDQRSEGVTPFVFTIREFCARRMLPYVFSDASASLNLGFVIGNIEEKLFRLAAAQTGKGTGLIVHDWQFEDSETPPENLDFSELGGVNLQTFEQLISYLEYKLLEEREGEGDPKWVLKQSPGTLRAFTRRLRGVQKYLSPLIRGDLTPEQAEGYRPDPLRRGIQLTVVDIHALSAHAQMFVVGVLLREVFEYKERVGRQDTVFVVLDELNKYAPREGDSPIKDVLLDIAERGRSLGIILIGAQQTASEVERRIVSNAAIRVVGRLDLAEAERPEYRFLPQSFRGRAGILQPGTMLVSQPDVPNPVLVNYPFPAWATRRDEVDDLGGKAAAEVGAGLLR

DrRecJ = molecular target: T2, DrRecJ (Deinococcus radiodurans, UniProt D0EM60 1-705); test: EMSA; DNA:RecJ 1:2 to 1:16; no metal added; EMSA: 100 nM DNA, 80 mM NaCl, 20 mM Tris-HCl pH 7.5, 1 mM DTT, 30 C, 10 min, 5% TBE native PAGE; conditions: protein: recombinant; tags: HMT (His6-MBP) tag removed by TEV; label: 5' FAM; single strand
T2 sequence: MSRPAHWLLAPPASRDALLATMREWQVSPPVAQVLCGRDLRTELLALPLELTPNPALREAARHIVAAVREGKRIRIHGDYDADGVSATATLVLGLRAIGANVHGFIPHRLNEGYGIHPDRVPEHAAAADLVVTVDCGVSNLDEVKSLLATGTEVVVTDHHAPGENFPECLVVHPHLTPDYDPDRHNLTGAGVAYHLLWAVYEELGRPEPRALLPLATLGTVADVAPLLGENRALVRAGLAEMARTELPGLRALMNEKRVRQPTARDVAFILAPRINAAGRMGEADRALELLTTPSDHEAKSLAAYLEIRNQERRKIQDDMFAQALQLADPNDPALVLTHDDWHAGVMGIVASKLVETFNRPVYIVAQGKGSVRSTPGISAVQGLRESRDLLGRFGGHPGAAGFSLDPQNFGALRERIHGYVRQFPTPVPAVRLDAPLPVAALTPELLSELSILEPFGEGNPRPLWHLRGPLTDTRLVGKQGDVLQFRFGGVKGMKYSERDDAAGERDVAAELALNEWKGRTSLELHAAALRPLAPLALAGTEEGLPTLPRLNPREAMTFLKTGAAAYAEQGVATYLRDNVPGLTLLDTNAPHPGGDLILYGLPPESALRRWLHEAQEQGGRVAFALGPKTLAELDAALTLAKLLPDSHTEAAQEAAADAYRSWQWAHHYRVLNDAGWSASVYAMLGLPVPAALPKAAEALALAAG

AAAAAAAAAA (ssDNA) [O1 (10 nt ssDNA)]: no binding (DrHerA); binds (DrRecJ).
